Source: the RNAGym collection of RNA variant scans (doi:10.7554/elife.90254)

B1: LINE1-full (parent)
chain: UACGUAGGUGGUUUUCCCCUGAUAGUGCUAAGGGGGCCUGGAAGUUUGGACUGGGCAGAGCUCAACACAGCGUGGCAAAGUGGCUGUGGCUAGACUGCCUCUCUGGAUUCCUCGUCACUCAGCAGGGCAUCUCUGAGAGAAAUGCC

Variants of: B1
Experiment: self-cleavage, relative activity (ratio to wild type); higher = more cleavage; in vitro, sequencing; the parent is a self-cleaving ribozyme

Point of comparison: UACGUAGGUGGUUUUCCCCUGAUAGUGCUAAGGGGGCCUGGAAGUUUGGACUGGGCAGAGCUCAACACAGCGUGGCAAAGUGGCUGUGGCUAGACUGCCUCUCUGGAUUCCUCGUCCCUCAGCAGGGCAUCUCAGAGAGAAAUGCC [A117C U134A], self-cleavage 1.53. Against it:
- UACGUAGGUGGUUUUCCCCUGAUAGUGCUAAGGGGGCCUGGAAGUUUGGACUGGGCAGAGCUCAACACAGCGUGGCAAAGUGGCUGUGGCUAGUCUGCCUCUCUGGAUUCCUCGUCACUCAGCAGGGCAUCUCAGAGAGAAAUGCC [A94U U134A] — lower, 0.25
- UACGUAGGUGGUAUUCCCCUGAUAGUGCUAAGGGGGCCUGGAAGUUUGGACUGGGCAGAGCUCAACACAGCGUGGCAAAGAGGCUGUGGCUAGACUGCCUCUCUGGAUUCCUCGUCACUCAGCAGGGCAUCUCUGAGAGAAAUGCC [U13A U81A] — higher, 1.81
- UACGUAGGUGGUUUUCCCCUGAUAGUGCUAAGGGGGCCUGGAAGUUUGGACUGGGCGGAGCUCAACACAGCGUGGCAAAGUGGCUGUGGCUAGACUGCCUCUCUGGAAUCCUCGUCACUCAGCAGGGCAUCUCUGAGAGAAAUGCC [A57G U108A] — lower, 0.8
- UACGUAGGCGGUUAUCCCCUGAUAGUGCUAAGGGGGCCUGGAAGUUUGGACUGGGCAGAGCUCAACACAGCGUGGCAAAGUGGCUGUGGCUAGACUGCCUCUCUGGAUUCCUCGUCACUCAGCAGGGCAUCUCUGAGAGAAAUGCC [U9C U14A] — lower, 1.17
- UACGUAGGUGGUUUUCCCCUGAUAGUGCUAAGGGGGCCUGGAAGUUUGGACUGGGCAGAGCUCAACACAGCGUGGCAAAGUGGCUGUGGCUAGACUGCCUCUCUGGAUUUCUCGUCACUCAGCAGGGCAUCUCUGCGAGAAAUGCC [C110U A136C] — higher, 2.76
- UACGUAGGUGGUUUUCCCCUGAUAGUGCUAAGGGGGCCUGGAAGUUUGGACUGGGCAGAGCUCAACACAGCAUGGCAAAGUGGCUGUGGCUAGACUGCCACUCUGGAUUCCUCGUCACUCAGCAGGGCAUCUCUGAGAGAAAUGCC [G72A U100A] — lower, 0.18
- UACGUAGGUGGUUUUCCCCUGAUAGUGCUAAGGGGGCCUGGAAGUUUGGACUGGGCAGAGCUCAACACAGCGUGGCAAAGCGGCUGUGGCUUGACUGCCUCUCUGGAUUCCUCGUCACUCAGCAGGGCAUCUCUGAGAGAAAUGCC [U81C A92U] — lower, 0.95
- UACGUAGGUGGUUUCCCCCUGAUAGUGCUAAGGGGGCCUGGAAGUUUGGACUGGGCAGAGCUCAACACAGCGUGGCAAAGUGGCUGUGGCUAGUCUGCCUCUCUGGAUUCCUCGUCACUCAGCAGGGCAUCUCUGAGAGAAAUGCC [U15C A94U] — lower, 0.67
- UACGUAGGUGGUUUUCCCCUGAUAGUGCUAAGGGGGCCUGGAAGUUUGGACAGGGCAGAGCUCAACACAGCGUGGCAAAGUGGCUGUGGCUAGACUGCCUCUCUGGAUUCCUCGUCACCCAGCAGGGCAUCUCUGAGAGAAAUGCC [U52A U119C] — lower, 1.48
- UACGUAGGUGGUUUUCCCCUGAUAGUGCUAAGGGGGCCUGGAAGUUUGGACUGGGCAGAGCUCAACACAGCGUGGCAAAGUGGCUGUGGCUAGACUGCCUCUCUGGAUUCCUCGUCUCUCAGCAGCGCAUCUCUGAGAGAAAUGCC [A117U G126C] — lower, 1.47
- UACGUAGGUGGUCUUCCCCUGAUAGUGCUAAGGGGGCCUGGAAGUUUGGACUGGCCAGAGCUCAACACAGCGUGGCAAAGUGGCUGUGGCUAGACUGCCUCUCUGGAUUCCUCGUCACUCAGCAGGGCAUCUCUGAGAGAAAUGCC [U13C G55C] — lower, 0.25
- UACGUAGGUGGUUUUCCCCUGAUAGUGCUAAGGGGGCCUGGAAGUUUGGACUGGGCAGAGCUCAACACAGCGUGGCAAAGAGGCUGUGGCUAGACUGCCUCUCUGGAUUCCUCGUCACUCAGCAGGGCAUCUCGGAGAGAAAUGCC [U81A U134G] — lower, 0.65
- UAUGUAGGUGGUUUUCCCCGGAUAGUGCUAAGGGGGCCUGGAAGUUUGGACUGGGCAGAGCUCAACACAGCGUGGCAAAGUGGCUGUGGCUAGACUGCCUCUCUGGAUUCCUCGUCACUCAGCAGGGCAUCUCUGAGAGAAAUGCC [C3U U20G] — lower, 0.53
- UACGUAGGUGGUUUUCCCCUGAUAGUGCUAAGGGGGCCUGGAAGUUUGGACUGGGCAGAGCUCAACACAGCGUGGCAAAGUGGCUGUGGCUAGACUGCCUCUCUGGAUUCCGCGUCACUCAGCAGGGCAUCUCUGAGAGAAAUGCC [U112G] — lower, 1.28
- UACGUAGGUGGGUUUCCCCUGAUAGUGCUAAGGGGGCCUGGAAGUUUGGACCGGGCAGAGCUCAACACAGCGUGGCAAAGUGGCUGUGGCUAGACUGCCUCUCUGGAUUCCUCGUCACUCAGCAGGGCAUCUCUGAGAGAAAUGCC [U12G U52C] — lower, 0.79
- UAAGUAGGUGGUUUUCCCCUGAUAGUGCUAAGGGGGCCUGGAAGUUUGGACUGGGCAGAGCUCAACACAGCGUGGCAAAGUGGCUGUGGCUAGACUGCCUCUCUGGAUUCCUCGUCACUCAGCUGGGCAUCUCUGAGAGAAAUGCC [C3A A124U] — lower, 0.6
- UACGUAGGUGGUUUUCCCCUGAUAGUGCUAAGGGGGCCUGGAAGUUUGGGCUGGGCAGAGCUCAACACAGCGUGGCAAAGUGGUUGUGGCUAGACUGCCUCUCUGGAUUCCUCGUCACUCAGCAGGGCAUCUCUGAGAGAAAUGCC [A50G C84U] — lower, 0.11
- UACGUAGGGGGUUUUCCCCUGAUAGUGCUAAGGGGGCCUGGAAGUUUGGACUGGGCAGAGCUCAACAUAGCGUGGCAAAGUGGCUGUGGCUAGACUGCCUCUCUGGAUUCCUCGUCACUCAGCAGGGCAUCUCUGAGAGAAAUGCC [U9G C68U] — lower, 0.21
- UACGUAGGUGGUUUUCCCCUGAUAGUGCAAAGGGGGCCUGGAAGUUUGGACUGGGCAGAGCUCAACACAGCGUGGCAAAGUGGCUGUGGCUAGACUGCCUCUCUGGAUUCCUCGUCACUCAGCAGGGCAUCACUGAGAGAAAUGCC [U29A U132A] — lower, 1.09
- UACGUAGGUGGUUUUCCCCUGAUAGUGCUAAGGGGGCCUGGAAGUUUGGACUGGGCAGAGCUCAACACAGCGAGGCAAAGUGGCUGUGGCUAGACUGCCUCUCUGGAUUCCUCGUCACUCAGCAGGGCAUCGCUGAGAGAAAUGCC [U73A U132G] — higher, 2.06
- UACGUAGGUGGUUUUCCCCUGAUAGUGCUAAGGGGGCCUGGGAGUCUGGACUGGGCAGAGCUCAACACAGCGUGGCAAAGUGGCUGUGGCUAGACUGCCUCUCUGGAUUCCUCGUCACUCAGCAGGGCAUCUCUGAGAGAAAUGCC [A42G U46C] — lower, 1.49
- UACGUAGGUGGUAUUCCCCUGAUAGUGCUAAGGGGGCCUGGAAGUUUGGACUGGGCAGAGCUCAACACAGCGUGGCAAAGUGGCUGUGGCUAGACUGCCUCUCUGGAUUCCUCGUCACUCAGCAGGGCAUUUCUGAGAGAAAUGCC [U13A C131U] — lower, 1.15
- UACGUAGGUGGUUUUCCCCUGAUGGUGCUAAGGGGGCCUGGAAGUUUGGACUGGGCAGAGCUCAACACAGCGUGGCAAAGUGGCUGUGGCUUGACUGCCUCUCUGGAUUCCUCGUCACUCAGCAGGGCAUCUCUGAGAGAAAUGCC [A24G A92U] — lower, 1.34
- UACGUAGGUGGUUUUCCCCUGAUAGUGCUAAGGAGGCCUGGAAGUUUGGACUGGGCAGAGCUCAACACAGCGUGGCAAAGUUGCUGUGGCUAGACUGCCUCUCUGGAUUCCUCGUCACUCAGCAGGGCAUCUCUGAGAGAAAUGCC [G34A G82U] — higher, 2.19
- UACGUAGGUGGGUUUCCCCUGAUAGUGCUAAGGGGGCCUGGAAGUUUGGACUGGGCAGAGCUCCACACAGCGUGGCAAAGUGGCUGUGGCUAGACUGCCUCUCUGGAUUCCUCGUCACUCAGCAGGGCAUCUCUGAGAGAAAUGCC [U12G A64C] — lower, 0.55
- UACGUAGGUGGUUUUCCCCUGAUAGUGCUAAGGGGGCCUGGAAGUUUGGACUGGGCAGAGCUCAACACAGCGAGGCAAAGUGGCUGUGGCUAGACUGUCUCUCUGGAUUCCUCGUCACUCAGCAGGGCAUCUCUGAGAGAAAUGCC [U73A C98U] — lower, 0.32
- UACGAAGGUGGUUUUCCCCUGAUAGUGCUAAGGGGCCCUGGAAGUUUGGACUGGGCAGAGCUCAACACAGCGUGGCAAAGUGGCUGUGGCUAGACUGCCUCUCUGGAUUCCUCGUCACUCAGCAGGGCAUCUCUGAGAGAAAUGCC [U5A G36C] — lower, 1.16
- UACGUAGGUGGUUUUCCCCUGAUAGUGCUAAGGGGGCCUGGAAGUUUGGACUGGGCAGAGCUCAACACAGCGUGGCAAAGUGGCUGUGGCUAGACUGCCUCUCUGGGUUCCUCGUCACUCAGCAUGGCAUCUCUGAGAGAAAUGCC [A107G G125U] — higher, 1.96
- UACGUAGGUGGUUUUCCCCUGAUCGUGCUAAGGGGGCCUGGAAGUUUGGAUUGGGCAGAGCUCAACACAGCGUGGCAAAGUGGCUGUGGCUAGACUGCCUCUCUGGAUUCCUCGUCACUCAGCAGGGCAUCUCUGAGAGAAAUGCC [A24C C51U] — lower, 1.37
- UACGUAGGUGGUUUUCCCCUGUUAGUGCUAAGGGGGCCUGGAAGUUUGGACUGGGCAGAGCCCAACACAGCGUGGCAAAGUGGCUGUGGCUAGACUGCCUCUCUGGAUUCCUCGUCACUCAGCAGGGCAUCUCUGAGAGAAAUGCC [A22U U62C] — lower, 0.13
- UACGUAGGUGGUUUUCCCCUUAUAGUGCUAAGGGGGCCUGGAAGUUUGGACUGGGCAGAGCUCAACACAGCGUGGCAAGGUGGCUGUGGCUAGACUGCCUCUCUGGAUUCCUCGUCACUCAGCAGGGCAUCUCUGAGAGAAAUGCC [G21U A79G] — lower, 1.32
- UACGUAGGUGGUUUUCCCCUGAUGGUGCUAAGGGGGCCUGGAAGUUUGGACUGGGCAGAGCUCAACACAGCGUGGCAAAGAGGCUGUGGCUAGACUGCCUCUCUGGAUUCCUCGUCACUCAGCAGGGCAUCUCUGAGAGAAAUGCC [A24G U81A] — lower, 0.47
- UACGUAGGUGGUUUUCCCCUGAUAGUGCUAAGGGGGUCUGGAAGUUUGGACUGGGCAGAGCUCAACACAGCGUGGCAAAGUGGCUAUGGCUAGACUGCCUCUCUGGAUUCCUCGUCACUCAGCAGGGCAUCUCUGAGAGAAAUGCC [C37U G86A] — lower, 0.1
- UACGUAGGUGGUUUUCCCCUGAUAGUGCUAAGGGGGCCUGGAAGUUUGGACUGGGCAGAGCUCAACACAGCGUGGCAAAGUGGCUGUGGCUAGACUGCUUCUCUGGAUUCCUCGUCACUCAGCAGGGCAUCUCUGAGAGAAGUGCC [C99U A142G] — lower, 0.58
- UACGUAGGUGGUUUUCCCCUGAUAGUGCUGAGGGGGCCUGGAAGUUUGGACUGGGCAGAGCUCAACACAGCGUGGCAAAGUGGCUGUGGCUAGACAGCCUCUCUGGAUUCCUCGUCACUCAGCAGGGCAUCUCUGAGAGAAAUGCC [A30G U96A] — lower, 0.21
- UACGUAGGUGGUUUUCCCCUGAUAGUGCUAAGGGGGCCUGGAAGUUUGGACUGGGCAGAGCUCAACACAGCGUGGCAAAGUGGCUGUGGCUAGACUGCUUCUCUGGAUUCCCCGUCACUCAGCAGGGCAUCUCUGAGAGAAAUGCC [C99U U112C] — lower, 0.36
- CACGUAGGUGGUUUUCCCCUGAUAGUGCUAAGGGGGCCUGAAAGUUUGGACUGGGCAGAGCUCAACACAGCGUGGCAAAGUGGCUGUGGCUAGACUGCCUCUCUGGAUUCCUCGUCACUCAGCAGGGCAUCUCUGAGAGAAAUGCC [U1C G41A] — lower, 0.52
- UACGUAGGUGGUUUUCCCCUGAUAGUGCUAAGGGGGCCUGGAAGUUUGGACUGGGCAGAGCUCAACACAGCGUGGCAAAGUGGCUGUGGCUAGACUGCCUCUCUGGAUCCCUCGUCACUCAGCAGGGCAACUCUGAGAGAAAUGCC [U109C U130A] — lower, 1.24
